From paper PMC10764278

Target: recombinant human tau(297–391) (human) (UniProt P10636)
Test: co-sedimentation; pelletable tau: whole assembly reaction centrifuged at 400,000g, 20 °C, 15 min, pellet and supernatant quantified by SDS-PAGE; 720 min (Fig. 2b, PHF reaction)

With “recombinant human tau(297–391) (from UniProt P10636-8 297-391) (domain or fragment)” the percent of tau pelletable was 80 to 90%.
